From paper PMC3971960 (Biochemistry, 2014) come the findings set out here.

One series has as its target T1, BlaI (Staphylococcus aureus, UniProt P0A042 1-126).
T1 sequence: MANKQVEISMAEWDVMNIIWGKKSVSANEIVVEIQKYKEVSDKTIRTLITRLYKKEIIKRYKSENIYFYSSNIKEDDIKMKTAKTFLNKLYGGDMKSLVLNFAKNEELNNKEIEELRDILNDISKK
In words: fluorescence anisotropy. In general terms: In fluorescence polarisation assays a small probe gives low polarisation when free and higher when bound to something large.

For a further series, the target named is T2, MecI (Staphylococcus aureus NRS70 (N315), UniProt P68261 1-123).
T2 sequence: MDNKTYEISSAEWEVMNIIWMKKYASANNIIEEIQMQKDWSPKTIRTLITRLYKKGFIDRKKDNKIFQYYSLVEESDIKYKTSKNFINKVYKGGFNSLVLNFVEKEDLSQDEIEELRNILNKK
Nature of the series: fluorescence anisotropy.

The series “MALDI mass spectrometry” deals with the molecule itself. In words: MALDI mass spectrometry.
The series “AUC” concerns the molecule itself. Nature of the series: AUC.

B1: mec dsDNA (mec operator) (dsDNA)
DNA 1: ATATAAGACTACATTTGTAGTATATTACAAATGTAGTATTT
DNA 2: AAATACTACATTTGTAATATACTACAAATGTAGTCTTATAT
Take B1: the Kd (as a rule, the constant that tells how readily two partners part at equilibrium) was 13 ± 6 nM with BlaI and under 10 nM with MecI.

B2: MecI (natural protein, S. aureus NRS70 (N315), UniProt P68261 1-123, looked up)
chain: T2 sequence
B2: the stoichiometry N (commonly the number of molecules, sites or subunits per partner or assembly) in “MALDI mass spectrometry” is 5; in “AUC” it was 2. Moreover, the Kd in “AUC” is 300 ± 30 nM.
